Assay results as given in paper PMC6090078.

Test system: T1, AcrR (His6-AcrR) (Acinetobacter nosocomialis ATCC 17903 (NCTC 8102)?), ORF:b0b0015b
T1 sequence: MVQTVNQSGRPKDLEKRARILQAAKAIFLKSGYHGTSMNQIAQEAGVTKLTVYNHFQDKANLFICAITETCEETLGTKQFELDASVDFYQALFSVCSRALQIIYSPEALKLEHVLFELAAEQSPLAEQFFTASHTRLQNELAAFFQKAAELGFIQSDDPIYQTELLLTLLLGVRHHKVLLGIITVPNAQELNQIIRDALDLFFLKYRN
Assay: EMSA

In the case of “AAAACCCTCTAATAAAAGATTAAAAAAATAAATATTTATAAGTTTTTTTTAATTAATGTACCCATGGGTATATTAATTAAAAAACAAACAAACTATGATGCAAGCATATTGTGCCTTAAAAAATCAGTTTGAATAAGAGCGATAAGAT (double strand) [PacrA/acrR promoter fragment, 148 bp]”, the binding is reported as “binds”.
